From patent US20080146500A1, “Selective Vpac2 Receptor Peptide Agonists” (priority 2004, published 2008)
Ends that are not written are not given here. * marks the point of attachment. Hexanoyl = CCCCCC(=O)*

T1: human VPAC1 (Homo sapiens, UniProt P32241)
T1 construct: expressed in transfected cells
T1 sequence (P32241 31-457): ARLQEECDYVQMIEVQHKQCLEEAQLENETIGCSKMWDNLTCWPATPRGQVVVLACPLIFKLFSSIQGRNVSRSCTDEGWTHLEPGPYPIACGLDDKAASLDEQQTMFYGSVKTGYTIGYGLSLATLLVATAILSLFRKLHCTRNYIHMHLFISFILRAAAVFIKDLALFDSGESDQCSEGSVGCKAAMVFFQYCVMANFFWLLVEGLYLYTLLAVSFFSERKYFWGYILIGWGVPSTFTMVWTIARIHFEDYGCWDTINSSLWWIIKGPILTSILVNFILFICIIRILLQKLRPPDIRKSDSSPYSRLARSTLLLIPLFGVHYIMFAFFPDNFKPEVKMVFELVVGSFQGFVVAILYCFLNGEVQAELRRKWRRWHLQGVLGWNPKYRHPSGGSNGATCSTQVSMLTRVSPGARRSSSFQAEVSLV

T2: human PAC1 (Homo sapiens, UniProt P41586)
T2 construct: expressed in transfected cells
T2 sequence (P41586 21-468): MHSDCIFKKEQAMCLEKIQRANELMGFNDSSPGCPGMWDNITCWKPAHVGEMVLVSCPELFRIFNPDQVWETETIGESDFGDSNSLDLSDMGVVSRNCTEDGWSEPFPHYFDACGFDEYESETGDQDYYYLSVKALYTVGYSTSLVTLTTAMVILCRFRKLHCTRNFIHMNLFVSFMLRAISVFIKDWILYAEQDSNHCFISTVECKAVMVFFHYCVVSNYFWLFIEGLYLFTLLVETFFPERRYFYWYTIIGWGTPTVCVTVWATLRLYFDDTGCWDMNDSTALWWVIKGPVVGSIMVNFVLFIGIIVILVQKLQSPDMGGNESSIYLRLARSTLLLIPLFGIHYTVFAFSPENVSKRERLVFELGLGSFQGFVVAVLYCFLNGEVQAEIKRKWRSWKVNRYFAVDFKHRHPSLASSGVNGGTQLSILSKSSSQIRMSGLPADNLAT

T3: human VPAC2 receptor (human, UniProt P41587 24-438)
T3 construct: whole, on cells
T3 sequence (looked up): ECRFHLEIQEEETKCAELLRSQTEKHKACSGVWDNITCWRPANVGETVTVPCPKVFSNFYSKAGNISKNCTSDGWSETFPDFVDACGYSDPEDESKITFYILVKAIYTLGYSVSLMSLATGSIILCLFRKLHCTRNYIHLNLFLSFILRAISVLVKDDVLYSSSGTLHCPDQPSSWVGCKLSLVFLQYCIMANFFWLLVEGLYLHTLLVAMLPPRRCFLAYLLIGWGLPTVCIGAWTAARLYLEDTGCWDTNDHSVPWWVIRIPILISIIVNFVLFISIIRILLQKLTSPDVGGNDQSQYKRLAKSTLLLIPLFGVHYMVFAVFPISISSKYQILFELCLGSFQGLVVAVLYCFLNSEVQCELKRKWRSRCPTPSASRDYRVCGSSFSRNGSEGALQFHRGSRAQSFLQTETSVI

T4: rat VPAC1 receptor (rat), P30083
T4 chain: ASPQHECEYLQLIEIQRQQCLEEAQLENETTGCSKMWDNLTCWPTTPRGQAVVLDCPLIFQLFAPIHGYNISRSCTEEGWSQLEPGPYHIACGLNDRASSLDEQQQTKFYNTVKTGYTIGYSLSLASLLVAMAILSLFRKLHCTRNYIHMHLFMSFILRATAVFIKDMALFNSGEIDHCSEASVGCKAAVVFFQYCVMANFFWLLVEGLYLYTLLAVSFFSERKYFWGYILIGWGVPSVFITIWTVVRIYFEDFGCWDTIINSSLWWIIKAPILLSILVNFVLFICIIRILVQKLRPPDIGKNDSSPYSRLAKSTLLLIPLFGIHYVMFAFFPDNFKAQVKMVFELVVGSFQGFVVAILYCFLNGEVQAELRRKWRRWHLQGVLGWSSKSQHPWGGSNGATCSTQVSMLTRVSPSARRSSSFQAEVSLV

T5: human VPAC2 receptor (human), P41587
T5 chain: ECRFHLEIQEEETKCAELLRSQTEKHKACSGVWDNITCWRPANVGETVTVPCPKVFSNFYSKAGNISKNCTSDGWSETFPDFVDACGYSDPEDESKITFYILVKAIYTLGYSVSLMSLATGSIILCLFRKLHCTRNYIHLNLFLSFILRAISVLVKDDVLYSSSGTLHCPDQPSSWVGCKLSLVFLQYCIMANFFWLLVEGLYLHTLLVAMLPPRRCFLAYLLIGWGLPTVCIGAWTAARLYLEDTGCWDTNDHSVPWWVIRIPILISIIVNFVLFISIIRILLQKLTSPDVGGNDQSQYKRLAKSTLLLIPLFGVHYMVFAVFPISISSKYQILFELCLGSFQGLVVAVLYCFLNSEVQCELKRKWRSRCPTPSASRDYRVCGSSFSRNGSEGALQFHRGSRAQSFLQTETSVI

T6: rat VPAC2 receptor (rat), P35000
T6 chain: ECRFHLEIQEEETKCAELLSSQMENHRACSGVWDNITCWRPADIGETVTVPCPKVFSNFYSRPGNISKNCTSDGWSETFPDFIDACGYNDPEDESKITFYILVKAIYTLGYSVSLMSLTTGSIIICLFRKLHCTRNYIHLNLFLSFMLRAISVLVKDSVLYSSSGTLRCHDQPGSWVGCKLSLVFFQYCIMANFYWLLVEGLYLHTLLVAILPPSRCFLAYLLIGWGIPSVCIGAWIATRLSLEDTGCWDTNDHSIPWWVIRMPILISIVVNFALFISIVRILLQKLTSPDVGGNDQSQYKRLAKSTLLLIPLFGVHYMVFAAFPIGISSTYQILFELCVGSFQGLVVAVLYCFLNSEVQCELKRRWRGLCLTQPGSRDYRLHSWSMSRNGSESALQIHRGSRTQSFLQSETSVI

T7: human VPAC1 receptor (human), P32241
T7 chain: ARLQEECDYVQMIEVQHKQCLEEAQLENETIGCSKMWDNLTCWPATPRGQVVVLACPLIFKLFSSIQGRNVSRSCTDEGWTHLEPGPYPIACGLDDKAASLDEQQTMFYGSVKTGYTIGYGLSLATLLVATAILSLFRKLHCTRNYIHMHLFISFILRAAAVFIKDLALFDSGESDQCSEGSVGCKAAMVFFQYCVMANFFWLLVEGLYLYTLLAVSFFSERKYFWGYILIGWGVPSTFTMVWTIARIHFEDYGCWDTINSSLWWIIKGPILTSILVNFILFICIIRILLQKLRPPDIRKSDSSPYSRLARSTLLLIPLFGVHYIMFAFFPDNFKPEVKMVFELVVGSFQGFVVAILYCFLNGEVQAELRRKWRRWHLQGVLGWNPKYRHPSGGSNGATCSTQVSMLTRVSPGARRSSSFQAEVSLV


Columns and labels:
Normal Wistar rats = assay: Intravenous glucose tolerance test (IVGTT), serum glucose and insulin; format: in vivo, rat; settings: Dose = 10 μg/kg iv, time between glucose & compound 0 h
Method: Intravenous glucose tolerance test (IVGTT): Normal Wistar rats are fasted overnight and are anesthetized prior to the experiment. A blood sampling catheter is inserted into the rats. The compound is given in the jugular vein. Blood samples are taken from the carotid artery. A blood sample is drawn immediately prior to the injection of glucose along with the compound. After the initial blood sample, glucose mixed with compound is injected intravenously (i.v.). Compound may also be injected intravenously or subcutaneously prior to the glucose challenge. A glucose challenge of 0.5 g/kg body weight is given, injecting a total of 1.5 mL vehicle with glucose and agonist per kg body weight. The peptide concentrations are varied to produce the desired dose in μg/kg. Blood samples are drawn at 2, 4, 6 and 10 minutes after giving glucose. The control group of animals receives the same vehicle along with glucose, but with no compound added. In some instances, a 30 minute post-glucose blood sample is drawn. Aprotinin is added to the blood sample (250-500 kIU/ml blood). The serum is then analyzed for glucose and insulin using standard methodologies.
The assay uses a formulated and calibrated peptide stock in PBS. Normally, this stock is a prediluted 100 μM stock. However, a more concentrated stock with approximately 1 mg agonist per 1 mL is used. The specific concentration is always known. Variability in the maximal response is mostly due to variability in the vehicle dose.

human VPAC1 = biological target: T1, human VPAC1; assay: Filter binding assay, membranes from cells transiently transfected with human VPAC1, 125I-labeled VIP tracer; settings: read-out: Human receptor binding (IC50; nM) VPAC1
Method: (§1) For this assay, the solutions and equipment include:
(§2) Presoak solution: 0.5% Polyethyleneamine in Aqua dest.
(§3) Buffer for flushing filter plates: 25 mM HEPES pH 7.4
(§4) Blocking buffer: 25 mM HEPES pH 7.4; 0.2% protease free BSA
(§5) Assay buffer: 25 mM HEPES pH 7.4; 0.5% protease free BSA
(§6) Dilution and assay plate: PS-Microplate, U form
(§7) Filtration Plate Multiscreen FB Opaque Plate; […] Type B Glasfiber filter
(§8) In order to prepare the filter plates, the presoak solution is aspirated by vacuum filtration. The plates are flushed twice with 200 μL flush buffer. 200 μL blocking buffer is added to the filter plate. The filter plate is then incubated with 200 μL presoak solution for 1 hour at room temperature.
(§9) The assay plate is filled with […] (2.5 μg) suspended in assay buffer, 25 μL compound (agonist) in assay buffer, and 25 μL tracer (about 40000 cpm) in assay buffer. The filled plate is incubated for 1 hour with shaking.
(§10) The transfer from assay plate to filter plate is conducted. The blocking buffer is aspirated by vacuum filtration and washed two times with flush buffer. 90 μL is transferred from the assay plate to the filter plate. The 90 μL transferred from assay plate is aspirated and washed three times with 200 μL flush buffer. The plastic support is removed. It is dried for 1 hour at 60° C. 30 μL Microscint is added. The count is performed.
(§11) Values reported are single results or the mean of two or more independent runs.

human PAC1 = biological target: T2, human PAC1; assay: Filter binding assay, membranes from cells transiently transfected with human PAC1, 125I-labeled PACAP-27 tracer; settings: read-out: Human receptor binding (IC50; nM) PAC1
Method: as §1, §2, §3, §4, §5, §6, §7, §8, §9, §10, §11

human VPAC2 receptor [1] = biological target: T3, human VPAC2 receptor; assay: filter binding, VPAC2 membranes, 125I-VIP tracer
Method: The assay plate is filled with 25 mL assay buffer, 25 mL membranes (2.5 μg) suspended in assay buffer, 25 μL compound (agonist) in assay buffer, and 25 μL tracer (about 40000 cpm) in assay buffer. The filled plate is incubated for 1 hour with shaking.

human VPAC2 receptor [2] = biological target: T3, human VPAC2 receptor; assay: cell-based or functional assay
[3] = biological target: T4, rat VPAC1 receptor (rat), P30083; assay: cell-based or functional assay
[4] = biological target: T5, human VPAC2 receptor (human), P41587; assay: cell-based or functional assay
[5] = biological target: T6, rat VPAC2 receptor (rat), P35000; assay: cell-based or functional assay
[6] = biological target: T5, human VPAC2 receptor (human), P41587; assay: filter binding, VPAC2 membranes, 125I-VIP tracer
[7] = biological target: T7, human VPAC1 receptor (human), P32241; assay: filter binding, VPAC1 membranes, 125I-VIP tracer

| Molecule | cAMP generation (EC50), Alpha screen [4] [nM] | IC50 [6] [nM] | other results |
| --- | --- | --- | --- |
| C6-HSDAVFTDNYTRLLAKLALQKYLQSIKNKRYGGPSSGAPPPC(PEG40K) (Hexanoyl-HSDAVFTDNYTRLLAKLALQKYLQSIKNKRYGGPSSGAPPPC(PEG 40 kDa)) [Agonist P190, PEGylated peptide obtained from P164 and methoxy-PEG2-MAL-40K] |  |  | % increase AUC (insulin, 0-10 min after glucose) (Normal Wistar rats): +73%; IC50 (human VPAC1): > 3000 nM; IC50 (human PAC1): > 25000 nM |
| Hexanoyl-HSDAVFTDNYTRLLAKLALQKYLQSIKNKRYGGPSSGAPPPC(PEG 40 kDa) (T0013 drops Thr 11 (print error); also called PEGylated P164) [P190] |  |  | IC50 (human VPAC2 receptor [1]): 4.44 nM; cAMP generation (EC50), Alpha screen (human VPAC2 receptor [2]): 2.14 nM |
| HSDAVFTDNYTRLRKQVAAKKYLQSIKNKRYGGPSSGAPPPC (modifications not checked) [P137] | 8.31 | 0.64 | cAMP generation (EC50), DiscoveRx, CHO-PO cells [3]: 29.7 nM; cAMP generation (EC50), DiscoveRx, CHO-PO cells [5]: 8 nM; IC50 [7]: 853 nM |
| HSDAVFTDNYTRLRRQVAAKRYLQSIRNGGPSSGAPPPS (modifications not checked) [P219] | 25.5 | 67.9 |  |
| HSDAVFTDNYTRLRKQVAARRYLQSIRNGGPSSGAPPPS (modifications not checked) [P245] | 450 | 921 |  |
| HSDAVFTDNYTRLRRQVAARKYLQSIRNGGPSSGAPPPS (modifications not checked) [P247] | 133 | 353 |  |
